Test results: article PMC10759339, “Expression of NELL2/NICOL-ROS1 lumicrine signaling-related molecules in the human male reproductive tract” (Reproductive Biology and Endocrinology : RB&E, 2024)

T1: C-terminally 6×His-tagged recombinant human NELL2 protein (human, UniProt Q99435 22-816)
T1 construct: Neural EGF-like like 2 (NELL2), human; also called Neural EGF-like like 2
T1 sequence (looked up): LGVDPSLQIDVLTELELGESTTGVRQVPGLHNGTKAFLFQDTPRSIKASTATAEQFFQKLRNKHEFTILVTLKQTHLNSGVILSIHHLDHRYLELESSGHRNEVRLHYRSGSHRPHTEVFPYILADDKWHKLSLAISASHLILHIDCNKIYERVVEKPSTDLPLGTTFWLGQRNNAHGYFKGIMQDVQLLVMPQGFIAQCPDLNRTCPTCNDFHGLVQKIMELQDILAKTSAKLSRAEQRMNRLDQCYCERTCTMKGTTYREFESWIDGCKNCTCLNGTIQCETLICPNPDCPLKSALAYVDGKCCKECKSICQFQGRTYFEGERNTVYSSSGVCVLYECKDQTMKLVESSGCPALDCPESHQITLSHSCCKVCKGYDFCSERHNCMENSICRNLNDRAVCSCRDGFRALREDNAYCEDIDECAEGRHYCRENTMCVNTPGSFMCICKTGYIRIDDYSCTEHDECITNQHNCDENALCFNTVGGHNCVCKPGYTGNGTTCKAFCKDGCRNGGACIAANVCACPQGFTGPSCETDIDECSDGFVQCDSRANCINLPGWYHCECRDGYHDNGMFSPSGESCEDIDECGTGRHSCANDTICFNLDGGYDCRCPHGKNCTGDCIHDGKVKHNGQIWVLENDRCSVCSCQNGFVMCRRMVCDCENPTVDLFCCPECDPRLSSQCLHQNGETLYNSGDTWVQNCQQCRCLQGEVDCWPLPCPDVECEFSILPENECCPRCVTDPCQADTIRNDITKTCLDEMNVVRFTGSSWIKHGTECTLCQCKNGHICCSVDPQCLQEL


What was measured:
NICOL (Mus musculus) = NICOL (Mus musculus) (UniProt Q3UR78); conditions: cited from earlier work
NICOL (Mus musculus), sequence (Q3UR78 29-90): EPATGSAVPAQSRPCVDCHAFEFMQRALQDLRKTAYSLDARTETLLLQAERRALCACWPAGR

[1] = molecular target: T1, C-terminally 6×His-tagged recombinant …; assay: SPR; purified human NELL2 immobilised on a series S sensor chip CM5 as ligand; purified human NICOL in PBS as analyte at increasing concentration; Biacore T200; conditions: both partners purified

NELL2, sequence (Q61220 25-819): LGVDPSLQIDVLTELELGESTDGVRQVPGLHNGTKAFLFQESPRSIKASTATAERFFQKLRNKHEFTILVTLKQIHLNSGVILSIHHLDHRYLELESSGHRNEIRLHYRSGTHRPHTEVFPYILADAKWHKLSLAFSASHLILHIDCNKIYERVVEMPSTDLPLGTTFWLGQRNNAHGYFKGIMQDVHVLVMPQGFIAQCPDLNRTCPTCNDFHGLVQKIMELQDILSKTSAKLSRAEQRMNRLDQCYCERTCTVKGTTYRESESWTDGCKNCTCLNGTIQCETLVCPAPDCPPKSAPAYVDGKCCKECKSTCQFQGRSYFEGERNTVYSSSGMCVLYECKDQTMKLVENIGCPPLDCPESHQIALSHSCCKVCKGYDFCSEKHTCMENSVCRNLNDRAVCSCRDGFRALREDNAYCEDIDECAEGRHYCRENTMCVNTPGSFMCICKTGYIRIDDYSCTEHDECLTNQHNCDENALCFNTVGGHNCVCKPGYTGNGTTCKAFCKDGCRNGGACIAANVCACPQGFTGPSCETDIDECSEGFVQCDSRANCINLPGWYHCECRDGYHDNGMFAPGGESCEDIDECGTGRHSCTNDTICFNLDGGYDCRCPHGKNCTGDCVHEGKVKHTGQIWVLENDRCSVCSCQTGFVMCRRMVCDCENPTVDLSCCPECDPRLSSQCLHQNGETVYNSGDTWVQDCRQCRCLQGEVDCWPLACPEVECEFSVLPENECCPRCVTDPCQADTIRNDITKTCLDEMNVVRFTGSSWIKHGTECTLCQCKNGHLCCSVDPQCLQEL

Kd [1] [nM]	koff [1] [s⁻¹]	kon [1] [M⁻¹ s⁻¹]	Molecule	Kd (NICOL (Mus musculus)) [nM]
			NELL2 (from UniProt Q61220)	87
110	0.00098	9100	C-terminally 6×His-tagged human NICOL protein (ligand, UniProt Q5BLP8 35-95, looked up, also called C4orf48) EPAGSAVPAQSRPCVDCHAFEFMQRALQDLRKTACSLDARTETLLLQAERRALCACWPAGH	
